Data reported in the supplement of paper PMC9170038.

Tested on: MS2 coat protein
Assay: apparent KD of MS2 coat protein; designed switch direction (-1 OFF switch, 1 ON switch): 1; higher = weaker reporter binding
Outline: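 Each step of the titration lasted 0.8–1.5 h at the lowest concentration and 10–20 min at the highest. The protein, SNAP-549-labelled MS2 coat protein, went from 0.7 or 1.5 nM doubling to 3 µM over RNA switches transcribed on Illumina chips by stalled E. coli RNA polymerase. Normalised cluster fluorescence was curve-fitted, and the per-design median over clusters is given as apparent KD.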

[1] = input ligand: microRNA oligo, concentration not stated
[2] = Eterna round: R95, input ligand: FMN 200 uM
[3] = Eterna round: R95, input ligand: microRNA oligo, concentration not stated
[4] = Eterna round: R95, input ligand: none

Sequence | apparent KD of MS2 coat protein [1] | apparent KD of MS2 coat protein (input ligand: FMN 200 uM) | apparent KD of MS2 coat protein (input ligand: none) | apparent KD of MS2 coat protein [2] | apparent KD of MS2 coat protein [3] | apparent KD of MS2 coat protein [4]
CUGAGGUGUCAAGGAUAUGCUACCGUUUCGGUAGCAGAAGGUGAUCACAUGAGGAUCACCCAUGUAUGCAUGCGUGAGCGUGCU [JL SSNG1 3.60] (Eterna round: R96, puzzle: Same State NG 1) | 17.8 nM |  |  |  |  | 
CUGUAUCGCGGAGGAUAUGGGCUGAGACCAGGGCAACCCUGGUCAACAUGAGGAUCACCCAUGUCCCAGAAGGCCGCGAUGCUA [Diaraenve] (Eterna round: R96, puzzle: Same State NG 2) | 73.6 nM | 19.7 nM | 113 nM |  |  | 
CUUUUUAGUGCAGGAUAUGAUCAACAUGAGGAUCACCCAUGUGGCGUUGUGAGUAGGGAGAGUGAUCAGAAGGGCGUCUCCGCG [SS-NG2-LRO11] (Eterna round: R96, puzzle: Same State NG 2) | 36.1 nM | 72 nM | 59.9 nM |  |  | 
GAAAAGACAUGAGGAUCACCCAUGUGAAAGCCUAAGGGCCCACAGGAUAUACAGUGAAAAGCACUGUAGAAGGGUGAUAAAGAC [Ordibidi] (Eterna round: R96, puzzle: Same State NG 3) | 271 nM | 228 nM | 172 nM |  |  | 
GAAAAGGCAACGCAGGAUAUGAAAGGUGAAACAUGAGGAUCACCCAUGUGCUACCUUCCGAUAAAUCAGAAGGGCGACGCCAAAA [Leceave] (puzzle: Same State 2) |  |  |  | 15.4 nM | 15.6 nM | 19.4 nM
GACAUUCUAUCUCAGGAUAUCAUGUCAAAGACAUGAGGAUCACCCAUGUACCAGGAAACUGGUUAUGAGAAGGGAGAUAGAAUGA [Mat - Same State 2 - Mod - D46] (puzzle: Same State 2) |  |  |  | 103 nM | 1880 nM | 176 nM
GACCGCGAGGAAGGAUAUGGAGCCUUAUUGGCUCCAGAAGGUCCAUAAAGGACAUGAGGAUCACCCAUGUGGGCUGAAGCGGUC [Fiskers NG1ss - 9] (Eterna round: R96, puzzle: Same State NG 1) | 25.8 nM | 22 nM | 35.1 nM |  |  | 
GACCGCGAGGAAGGAUAUGGAGCCUUAUUGGCUCCAGAAGGUCCAUAAAGGACAUGAGGAUCACCCAUGUGGGUUGGAGCGGUC [Fiskers NG1ss - 0] (Eterna round: R96, puzzle: Same State NG 1) | 96.2 nM | 32.8 nM | 176 nM |  |  | 
GAGAAGAGGGACAAGGAUAUGUCAGGAGAGACAUGAGGAUCACCCAUGUAGAGGAAGAGAGAGAGACAGAAGGUGUCGAGAGCGA [JR_SS2_Sub015] (puzzle: Same State 2) |  |  |  | 118 nM | 66 nM | 130 nM
GAGAGAGGAAGCGAGGAUAUCGUGUUGGGUACAUGAGGAUCACCCAUGUUGUAGGUAGAGGUAGGCGAGAAGGCGCAGGAGAGGU [JR_SS2_Sub096] (puzzle: Same State 2) |  |  |  | 105 nM | 67 nM | 195 nM
GAGAGAGGGCGAGGAUAUUCGGUGAUAAUGAUGGGAGAAGGCGCAGACAUGAGGAUCACCCAUGUGGGAAUAAUCCAGAGAGAG [Parity 13 - Jieux - Same State NG 1] (Eterna round: R96, puzzle: Same State NG 1) | 111 nM | 151 nM | 185 nM |  |  | 
GAGCCAGUCCGAGGAUAUUCACAUGAGGAUCACCCAUGUAGGCUCAGAAAAGAAAAGGAGCCUUGGGAGAAGGCGGACUGGCUC [Xeonanisa<<8] (Eterna round: R96, puzzle: Same State NG 2) | 9.87 nM | 6.35 nM | 13.3 nM |  |  | 
GAGCCAGUCCGAGGAUAUUCAUAAAUUAAAUACAUGAGGAUCACCCAUGUAGGCAGAGAGCCUUGGGAGAAGGCGGACUGGCUC [Xeonanisa>>3] (Eterna round: R96, puzzle: Same State NG 2) | 25.5 nM | 10.9 nM | 37.3 nM |  |  | 
GAGGAACAGGCCAACAUGAGGAUCACCCAUGUCCUCGCAUUUCAGGAUAUCUGGAAGAAGAAAAAAGAGAAGGGAAGGUGAAGC [AK SSNG3-V2-34.3] (Eterna round: R96, puzzle: Same State NG 3) | 140 nM | 198 nM | 165 nM |  |  | 
GAGGGACAGACCAACAUGAGGAUCACCCAUGUCCUCGCAGUUCAGGAUAUCCGGAGGUAGACGAAGGAGAAGGGAAGGUGAACC [AK SSNG3-V2-36] (Eterna round: R96, puzzle: Same State NG 3) | 382 nM | 266 nM | 207 nM |  |  | 
GAGGGACAGACCAACAUGAGGAUCACCCAUGUCCUCGGAGGUCAGGAUAUCCGGAGGUAGCCGAAGGAGAAGGGACGGUGAACC [AK SSNG3-V2-30.1] (Eterna round: R96, puzzle: Same State NG 3) | 136 nM | 322 nM | 197 nM |  |  | 
GAGUAGUUGAAAGGAUAUUGAUUGUUAUAGAAUCAAGAAGGUUCUAACAUGAGGAUCACCCAUGUAGGACUAUUCCUGUGUAUC [Parity 78 - Jieux - Same State NG 1] (Eterna round: R96, puzzle: Same State NG 1) | 9.15 nM |  |  |  |  | 
GAGUAGUUGGAAGGAUAUCGAUUGUUAUAGAAUCGAGAAGGUCCUAACAUGAGGAUCACCCAUGUAGGACUAUUCCUGUGUAUC [Parity 76 - Jieux - Same State NG 1] (Eterna round: R96, puzzle: Same State NG 1) | 8.12 nM |  |  |  |  | 
GAGUAGUUGGGAGGAUAUCGAUUGUUAUAGAAUCGAGAAGGUUCUAACAUGAGGAUCACCCAUGUAGGACUAUUCCUGUGUAUC [Parity 74 - Jieux - Same State NG 1] (Eterna round: R96, puzzle: Same State NG 1) | 37.3 nM |  |  |  |  | 
GAGUGGCAGUAAGGAUAUAUAAUGAUAAUCACAGUAGAAGGUACUGACAUGAGGAUCACCCAUGUAGGACUAAACCAGAGAGAG [Parity 43 - Jieux - Same State NG 1] (Eterna round: R96, puzzle: Same State NG 1) | 20.2 nM | 33.8 nM | 20.1 nM |  |  | 
GAGUGGUAAAGAGGAUAUGCAUUGUUAUUCACUGUAGAAGGUUUUAACAUGAGGAUCACCCAUGUAGGACUAUUCCUGUGUUUC [Parity 63 - Jieux - Same State NG 1] (Eterna round: R96, puzzle: Same State NG 1) | 11.8 nM | 14.4 nM | 17.3 nM |  |  | 
GAUAAACAUGAGGAUCACCCAUGUAAUAAUAUGGGAGGAUAUCAGAAUGUAUGUAUGUAAUGAGAAGGCCUAAAUG [Mat - Same State 1 - Mod of Eli - D73] (puzzle: Same State 1) |  |  |  | 104 nM | 425 nM | 309 nM
GAUUCACAUGAGGAUCACCCAUGUCGUUAUAUGGGAGGAUAUACGUGGACCGUAGUCCGCGUAGAAGGCCUAAUUG [JL-ss1-3.25 janelle mod] (puzzle: Same State 1) |  |  |  |  | 303 nM | 
GCAAUGGCGGUAGGAUAUCUAGGAUAUGGGAAAGACUAAGUCUGUAGGUCACCUAACCCAGAAGGAGAGAAGGACCCUGUAAGG [pwkr ssNG2 2FMN + F9.24] (Eterna round: R96, puzzle: Same State NG 2) | 9.31 nM | 43.2 nM | 30.8 nM |  |  | 
GCCAUCCAGUGAGGAUAUGGCACCGUUUCGGUGCCAGAAGGCAUGUCAAUUGACAUGAGGAUCACCCAUGUAUUAUGGAUGGCA [JL Fiskers NG1ss - 33 mod 1] (Eterna round: R96, puzzle: Same State NG 1) | 423 nM | 96.2 nM | 1110 nM |  |  | 
GCCGAACAUGAGGAUCACCCAUGUCUGGGUAAUCAAGGAUAUGGGAAGGCUUUGCCAUGACCAGAAGGUGGUUAUC [Zari] (Eterna round: R96, puzzle: Same State 1) | 38.9 nM | 26.3 nM | 53.5 nM |  |  | 
GCCGCACAUGAGGAUCACCCAUGUAAUUACAUGGGAGGAUAUCAGUGCUCGAAAGAGCACUGAGAAGGCCUGAGGC [SS1 - Omei A v1] (Eterna round: R96, puzzle: Same State 1) | 42.4 nM | 887 nM | 74.8 nM |  |  | 
GCCGCACAUGAGGAUCACCCAUGUAAUUACAUGGGAGGAUAUCAGUGCUCGAAAGAGCACUGAGAAGGCCUGAGGC [SS1 - Omei A v1] (puzzle: Same State 1) |  |  |  | 296 nM | 32.2 nM | 28.8 nM
